This note sets out measurements from the DeepSol protein solubility set.

The series is described as follows: soluble on expression in E. coli; label from the status in PepcDB or PDB records.
Regarding “MRGSHHHHHHGSMQYALLFPGQGSQCIGMGKSFYEGHTLAKELFERASNALKVDMKKTLFEENELLKESAYTQPAIYLVSYIAYQLLNKQANGGLKPVFALGHSLGEVSAVSLSGALDFEKALKLTHQRGKMMQEACANKDASMMVVLGVSEESLLSLCQRTKNVWCANFNGGMQVVLAGVKDDLKALEPTLKEMGAKRVVFLEMSVASHCPFLEPMIFKFQELLEKSLKDKFHFEIISNATNEAYHNKAKAVELLSLQLTQPVRYQDCVKSNNDRVDIFFELGCGSVLKGLNKRLSNKPTISVGDNKGLDEAIEFLEEYV”, the “soluble on expression in E. coli” value is on record as “soluble”. On to “ATPAAQASDDRYEVTQQRNPDAACLDCHKPDTEGMHGKHASVINPNNKLPVTCTNCHGQPSPQHREGVKDVMRFNEPMYKVGEQNSVCMSCHLPEQLQKAFWPHDVHVTKVACASCHSLHPQQDTMQTLSDKGRIKICVDCHSDQRTNPNFNPASVPLLKEQP”, for which the “soluble on expression in E. coli” value was “soluble”. For the sequence “MNLKAMDAILEDCCDIVCSDYLPSAMIKSMCIVAERINNLNKAVSLFTSNPAKAVGIYDERGSIKENKKADLVLVDIDSEYPKVVNTIVNGKTVYKRELEHHHHHH”, the “soluble on expression in E. coli” value is recorded as “not soluble”. Take “GPGSMAAAEGGQRSDEQVRAAALSWLRMTPVEKRVYEEEAQSWQTRLETLSTAPPSAHDLGEGSSSAAALPDALPSAEQPLPQQQHSSHLVAQRSSPKATAERLPRSKSSFVLFRAHMKGRRKMCMRELCAVWRNMSAEEKAPYDAAAASKRTEQFLSQTPSAPGSQS”: the “soluble on expression in E. coli” value is reported as “soluble”. With “MLSKTNQNIFTVSRLNAEVRLLLENEMGIVWLVGEISNFSAPVSGHWYLTLKDSRAQVKCAMFRGNNRRVTFKPANGNQVLVKARLSLYEPRGDYQLIIESMQPEGDGRLQQEFEELKMKLAAEGLFAQTNKLPLPEHPKRVGIITSKTGAALYDILDVLKRRDPSLPVVIYPTMVQGDDAAIQIAQAIGRANSRNECDVLIVGRGGGSLEDLWCFNNEILARTIAASQIPIISAVGHEVDMTIADFVADVRAPTPSAAAELVSRDNSHKDQSLVAKQHKLASAMRYYLSQQKQQSAQLLHRLERQHPSYQLQRQSQQLDELDMRLRRAMQRFIDTRQQAVERKHHRLQLNSPVKHLAQQKSRLERVEHKLLDTMDRKLLTMRHQLAIAAEKLDTVSPLATLKRGYSITQTEQGKVVTSADDVKTGDLLVTRLANGEIHSTVS”, the “soluble on expression in E. coli” value is reported as “not soluble”.

On to “VNQQLNSATKLFSVKLGATRVIYHAGTAGATLSVSNPQNYPILVQSSVKAADKSSPAPFLVMPPLFRLEANQQSQLRIVRTGGDMPTDRETLQWVCIKAVPPENEPSDTQAKGATLDLNLSINACDKLIFRPDAVKGTPEDVAGNLRWVETGNKLKVENPTPFYMNLASVTVGGKPITGLEYVPPFADKTLNMPGSAHGDIEWRVITDFGGESHPFHYVLK”, for which the “soluble on expression in E. coli” value is “soluble”. For “ADLGTENLYFQSMKPSPEEAQLWSEAFDELLASKYGLAAFRAFLKSEFCEENIEFWLACEDFKKTKSPQKLSSKARKIYTDFIEKEAPKEINIDFQTKTLIAQNIQEATSGCFTTAQKRVYSLMENNSYPRFLESEFYQDLCKKPQ”, the “soluble on expression in E. coli” value was “soluble”. On to “MSKYAILGLVLVGTVASLDFIGRTQSAAIKGRLVCEGKPASGVKVKLMESDNSFGPGFLDSDDKMASGKADSHGEFNLSGSTKEITGIEPYLVVFHDCKDGITPCQRVFRVNVPKSYTNSGSSAKKTYDAGVIELAGKYPGETRSCLN”, for which the “soluble on expression in E. coli” value is given as “not soluble”. For the sequence “MSLDLPYLSPTPFIKPVPSFKKYSMGFYPIVDSSHWLEMLLPLGIKCIQLRIKEASQERLEEEIKRSVHLANQYNAALFINDHWELAIHYGAAGVHLGQEDLEKADVDRINRSGLFLGISTHCYYEVARAHALNPSYVACGPIYETTSKIMPFQAQGIARLERWRKTLRYPLVAIGGITLKNLSDVLKTKIDGVSVISAITKASAPLVAAKQFLTQMNESHNEGHHHHHH”, the “soluble on expression in E. coli” value was “not soluble”. The entry for “MSADVVENGRAYNALWWAKVQSGGPQKVPADTPAVAGLARAVEPDGSGLWMLPTVPDGAGHGVLEELGAPPVAVEMPNETARVLAICVACCWTDRDASTWPGVTGTLAQVKAVYAGMRGRAEQSSDLTLIIGSLRRLHATHWLLWNEKAGEVRLGPRTITWSPSDLATLREICRVLPDPPPAVLVARAPEPTPDPLPVAASADGPAPSSDQAAASALPSPAAPPADGAPGPTPDPSPSLTSTSPAPSAPARSTEQSG” is “not soluble”; for “KDFLAMFSPKCGGCNRPVLENYLSAMDTVWHPECFVCGDCFTSFSTGSFFELDGRPFCELHYHHRRG” it is “soluble”; for “AHHHHHHHRSDAAVIVVGAGPAGMMLAGELRLAGVEVVVLERLVERTGESRGLGFTARTMEVFDQRGILPRFGEVETSTQGHFGGLPIDFGVLEGAWQAAKTVPQSVTETHLEQWATGLGADIRRGHEVLSLTDDGAGVTVEVRGPEGKHTLRAAYLVGCDGGRSSVRKAAGFDFPGTAATMEMYLADIKGVELQPRMIGETLPGGMVMVGPLPGGITRIIVCERGTPPQRRETPPSWHEVADAWKRLTGDDIAHAEPVWVSAFGNATRQVTEYRRGRVILAGDSAHIHLPAGGQGMNTSIQDAVNLGWKLGAVVNGTATEELLDSYHSERHAVGKRLLMNTQAQGLLFLSGPEVQPLRDVLTELIQYGEVARHLAGMVSGLEITYDVGTGSHPLLGKRMPALELTTATRETSSTELLHTARGVLLDLADNPRLRARAAAWSDRVDIVTAVPGEVSATSGLRDTTAVLIRPDGHVAWAAPGSHHDLPMALERWFGAPLTG” it is “soluble”.

In the case of “YGQYLSIRKTETLLRNELSKLTPDTVEELSSKLPENSRSLVITYMRQVLDARDTPAQVQRLLANFEIAADKDLAISKTLTK”, the “soluble on expression in E. coli” value was “not soluble”.

Take “MVSCQGTRPCIVNLLTMPSEDKLGEEISTRVINEYSKLKSACRPIIRPSGIREWTILAGVAAINRDGGANKIEILSIATGVKALPDSELQRSEGKILHDCHAEILALRGANTVLLNRIQNYNPSSGDKFIQHNDEIPARFNLKENWELALYISRLPCGDASMSFLNDNCKNDDFIKIEDSDEFQYVDRSVKTILRGRLNFNRRNVVRTKPGRYDSNITLSKSCSDKLLMKQRSSVLNCLNYELFEKPVFLKYIVIPNLEDETKHHLEQSFHTRLPNLDNEIKFLNCLKPFYDDKLDEEDVPGLMCSVKLFMDDFSTEEAILNGVRNGFYTKSSKPLRKHCQSQVSRFAQWELFKKIRPEYEGISYLEFKSRQKKRSQLIIAIKNILSPDGWIPTRTDDVK”: the “soluble on expression in E. coli” value was “not soluble”. With “MSNHIDRDVINALIAGHFADPFSVLGMHRTDAGLEVRALLPDATDVWVIEPKTGRKVGKLECLDSRGFFSGVLPRRKNAFRYQLAVTWHGQQNLIDDPYRFGPLLQ”, the “soluble on expression in E. coli” value is “not soluble”. Turning to “PSDTVTLFMSGDGGWRDLDKVVAGDMAKMGYPVVGIDVLRYYWEHKTPEQTAADLTDLMNHYRQKWGTKRFILAGYSFGADVMPAIYNRLAADDQNRVDAIILLAFAR”, the “soluble on expression in E. coli” value is recorded as “not soluble”. In the case of “MESIGLVEVNSIARGIEAADAMLKAAQVDLLEAKPVCPGKYIVLICGDVAAVQSSVTAGKTMAAHSVLDDFILPNVHPQVLTAISAATPLTLIKALGIIETFSIASLIVAADTAAKTGQVDLVEIRIGMGIGGKSFVTLTGDVASVESSVAAGVMLASERGMLVDKVVIPSPHDHLKRCLC”, the “soluble on expression in E. coli” value is listed as “soluble”.

Take “CRELLPVEARQKTLLIDADLTLDEITPKFLNVLEQFAPFGFSNREPLFTATGCRLVGKPKLLRERHVKFTVRGEQSSSFEVIAFDRPDIFNDLEAHGSASALQLVCIPERNQWNGREYVQLRVMDMAIG”: the “soluble on expression in E. coli” value is listed as “not soluble”. The entry for “MAGDPMSIPFFSFSWAVMSNLTYLQGYPEQLLSQVRTLINEQRLGDVLAKRYPGTHDYATDKALWQYTQDLKNQFLRNAPPINKVMYDNKIHVLKNALGLHTAVSRVQGSKLKAKAEIRVATVFRNAPEPFLRMIVVHELAHLKEKEHNKAFYQLCCHMEPQYHQLEFDTRLWLTQLSLGQDKILEHHHHHH” is “not soluble”. For “MRFAVLGSGSQGNGTLIVSADTCVLVDCGFSLRETERRLLRLGVDPAQLSAILVTHEHADHVHGVGLLSRRYNLPVYLSQGTLRGMRKPVEVAGFVRGGESLQIGALRIDVIAVAHDAQEPTQFVFSDGQRRFGLLTDLGSYCAGVLDGYRGLDALMIEANHCRDRLARGYYPYFLKQRVGGDLGHLNNHQAASLVAELGWQDLQHLVLAHLSSKNNLPQLARQCFVDTLGCDPDWLQLADQDSGLDWRHIALEHHHHHH”, the “soluble on expression in E. coli” value is reported as “not soluble”. In the case of “MSHIQRETSCSRPRLNSNLDADLYGYRWARDNVGQSGATIYRLYGKPNAPELFLKHGKGSVANDVTDEMVRLNWLTAFMPLPTIKHFIRTPDDAWLLTTAIPGKTAFQVLEEYPDSGENIVDALAVFLRRLHSIPVCNCPFNSDRVFRLAQAQSRMNNGLVDASDFDDERNGWPVEQVWKEMHKLLPFSPDSVVTHGDFSLDNLIFDEGKLIGCIDVGRVGIADRYQDLAILWNCLGEFSPSLQKRLFQKYGIDNPDMNKLQFHLMLDEFF”, the “soluble on expression in E. coli” value is listed as “soluble”.

Turning to “MEGVKKIKNPSTVKDELLELMFRIYRSTNGKYPALEWVKRKPNPNDFDGFREVYEPFLKFRLSQEFDELYTYQKDNRIIGTIALVYKRIKEKGIWWVPEELMNEKVGLIEFFVVDPEFQGKGIGSTLLEFAVKRLRSLGKDPYVVTFPNLEAYSYYYMKKGFREIMRYKEFVILKFNHKKFQLEHHHHHH”, the “soluble on expression in E. coli” value is given as “not soluble”. Consider “MSYYHHHHHHDYDIPTTENLYFQGAMGSGIPMSLPGSTHSTAAELTGPSLVEVLRARPWFEEPPKAVELEGLAACEGEYSQKYSTMSPLGSGAFGFVWTAVDKEKNKEVVVKFIKKEKVLEDCWIEDPKLGKVTLEIAILSRVEHANIIKVLDIFENQGFFQLVMEKHGSGLDLFAFIDRHPRLDEPLASYIFRQLVSAVGYLRLKDIIHRDIKDENIVIAEDFTIKLIDFGSAAYLERGKLFYTFCGTIEYCAPEVLMGNPYRGPELEMWSLGVTLYTLVFEENPFCELEETVEAAIHPPYLVSKELMSLVSGLLQPVPERRTTLEKLVTDPWVTQPVNLADYTWEEVCRVNKPESGVLSAASLEMGN”, for which the “soluble on expression in E. coli” value is “soluble”. Under “TVAEPKAINATQPLLLDAVRGKEVERPPVWLMRQAGRYMKSYQLLCEKYPLFRDRSENVDLVVEISLQPWKVFRPDGVILFSDILTPLSGMNIPFDIIKGKGPVIFDPLRTAADVEKVREFIPEKSVPYVGEALTILRKEVNNQAAVLGFVGAPFTLASYVVEGGSSKNFTKIKRLAFAEPKVLHALLQKFATSMAKYIRYQADSGAQAVQIFDSWATELSPVDFEEFSLPYLKQIVDSVKLTHPNLPLILYASGSGGLLERLPLTGVDVVSLDWTVDMADGRRRLGPNVAIQGNVDPGVLFGSKEFITNRINDTVKKAGKGKHILNLGHGIKVGTPEENFAHFFEIAKGLRY” stands “soluble”; under “MGSSHHHHHHSSGLVPRGSSGHVGLRNLGNTCFLNAVLQCLSSTRPLRDFCLRRDFRQEVPGGGRAQELTEAFADVIGALWHPDSCEAVNPTRFRAVFQKYVPSFSGYSQQDAQEFLKLLMERLHLEINRRGRRAPPILANGPVPSPPRRGGALLEEPELSDDDRANLMWKRYLEREDSKIVDLFVGQLKSCLKCQACGYRSTTFEVFCDLSLPIPKKGFAGGKVSLRDCFNLFTKEEELESENAPVCDRCRQKTRSTKKLTVQRFPRILVLHLNRFSASRGSIKKSSVGVDFPLQRLSLGDFASDKAGSPVYQLYALCNHSGSVHYGHYTALCRCQTGWHVYNDSRVSPVSENQVASSEGYVLFYQLMQEPP”, “soluble”.
